# Measurements as given in the DeepSol protein solubility set.
# Assay: soluble on expression in E. coli; label from the status in PepcDB or PDB records
row,Sequence,soluble on expression in E. coli
1,GAMEKFKTLLYDIPIECMEVSEEIISYAKLQLGKKLNDSIYVSLTDHINFAIQRNQKGLDIKNALLWETKRLYKDEFAIGKEALVMVKNKTGVSLPEDEAGFIALHIVNAELNEEMPNIINITKVMEEILSIVKYHFKIEFNEESLHYYRFVTDLKFFAQRLFNGTHMESEDDFLLDTVKEKYHRAYECTKKIQTYIEREYEHKLTSDELLYLTIDIERVVKQA,soluble
2,GAMGMDEGDGEGNILPIMQSIMQNLLSKDVLYPSLKEITEKYPEWLQSHRESLPPEQFEKYQEQHSVMCKICEQFEAETPTDSETTQKARFEMVLDLMQQLQDLGHPPKELAGEMPPGLNFDLDAL,soluble
3,GAMGSEEKLREVSSQDPVTGLYNRSHFLDLMDAAVQQAVTARKPSTLAYIHLNGYPSLQADHGLSGIDLLLGQLAGLMREQFGEEADLARFGDSIFAALFKGKTPEQAQAALQRLLKKVENHLFELNGRSAQATLSIGVAGLDEKTAKAQDVMNRAHRCADDAARKGGSQIKQYNPAEELAAAAQRGDVIAILQQALETNSFRLLFQPVISLRGDSHENYEVLLRLLNPQGQEVPPAEFLHAAKEAGLAEKIDRWVILNSIKLLAEHRAKGHQTKLFVHLSSASLQDPGLLPWLGVALKAARLPPESLVFQISEADATSYLKQAKQLTQGLATLHCQAAISQFGCSLNPFNALKHLTVQFIKIDGSFVQDLNQVENQEILKGLIAELHEQQKLSIVPFVESASVLATLWQAGATYIQGYYLQGPSQAMDYDFSSGDE,soluble
4,GAMGSMATRIAILGAGPSGMAQLRAFQSAQEKGAEIPELVCFEKQADWGGQWNYTWRTGLDENGEPVHSSMYRYLWSNGPKECLEFADYTFDEHFGKPIASYPPREVLWDYIKGRVEKAGVRKYIRFNTAVRHVEFNEDSQTFTVTVQDHTTDTIYSAAFDYVVCCTGHFSTPYVPEFEGFEKFGGRILHAHDFRDALEFKDKTVLLVGSSYSAEDIGSQCYKYGAKKLISCYRTAPMGYKWPENWDERPNLVRVDTENAYFADGSSEKVDAIILCTGYIHHFPFLNDDLRLVTNNRLWPLNLYKGVVWEDNPKFFYIGMQDQWYSFNMFDAQAWYARDVIMGRLPLPSKEEMKADSMAWREKELTLVTAEEMYTYQGDYIQNLIDMTDYPSFDIPATNKTFLEWKHHKKENIMTFRDHSYRSLMTGTMAPKHHTPWIDALDDSLEAYLSDKSEIPVAKEA,soluble
5,GAMGSYDWLPRLSKENFNAAPVTCFPHAPGCEVWDNLGVGMKVEVENTDCDSIEVIQPGQTPTSFWVATILEIKGYKALMSYEGFDTDSHDFWVNLCNAEVHSVGWCATRGKPLIPPRTIEHKYKDWKDFLVGRLSGARTLPSNFYNKINDSLQSRFRLGLNLECVDKDRISQVRLATVTKIVGDRLFLRYFDSDDGFWCHEDSPIIHPVGWATTVGHNLAAPQDYLERMLAGREAMIEVHEDDATIELFKMNFTFDEYYSDGKTNSFVEGMKLEAVDPLNLSSICPATVMAVLKFGYMMIRIDSYQPDASGSDWFCYHEKSPCIFPAGFCSVNNISVTPPNGYDSRTFTWEGYLSDTGAVAAGQHLFHDIIPDHGFEVGMSLECADLMDPRLVCVATVARVVGRLLKVHFDGWTDEYDQWLDCESADIYPVGWCVLVNHKLEGPPR,soluble
6,GASIHDPISAGRYFAQRLRANPNEVFAVLFLDNRHRAISFEELFHGTINGAEVHPREVVRRALTLNAAAVIVGHNHPSGNREPSPADQMITQRLKNALDLIDVRLVDHFVIGDGAPVSFAEHGWL,not soluble
7,GEINGVSGIFPASSVEVIKQLPQPPPLCRALYNFDLRDKDKSENQDCLTFLKDDVITVISRVDENWAEGKLGDKVGIFPILFVEPNVSARHLLQNKGHQLSRTRHLSLMSSPSRGKATNTSSLRKSPGSRRKGSGQFSMTTALNTLNRTVHSPEGHQMVEISTPMLISSNSPSVLTQHGDKADFPTSSTGQVSSSQPAPASPGHSTAMVSVPSSQQHLSNNMFVALHTYSAHRPEELDLQKGEGIRVLGKYQDGWLKGLSLLTGRTGIFPSDYVIPVFSSTARKTSSFPDSRSPTVCTTWALSTSSVSSQGSFAEGDPRQSGPFKSVFVPTAVVNPSRSTPGPGSSGQGSLRKVRSSMRKNGSLQRPVQSGIPTFMVGSLRCSPTMVIRPQRFQFYPPQGMTPSPTPIMVEMGSKSIYTGEPALTCINRGSKTRIHSAGNSIIMEGKETPIKSEPPPKPPASAPPSILVKPENSKNGTEKQVKTVRFQNYSPPPTKHSASSPTSGKHDHPATLKGSQHEAVSSGGEMTILFAHRSGCHSGQQTDLRRKSAFGKTMPLLSTASATQTLFPSK,soluble
8,GEQPSIQLTFADQNNSEMSVVHLNQLLKTNHISADKIIEKDGKTTIVFDGEDAQSKARALLNKELNKDDSITFSYVSVAPEWLNEMGFSPIKLGLDLRGGVQFLLNVDVNKAFEEQRDALIDEINASRDQRVRGVQVRAESGNRITVNSDSEQALSEVNKFLRQNYPGWISKSSSRGFVLEPSEQNIQEFQSSTLQQNLKIMRGRIEELGITEALVQRQGKESIRIELPGVQDPAQAKNVIGATASLAFYEVKDASQAHSSQDLVLQDNDGRTVILAKRPVLTGEHIVNARAGVDKMGMSEVNISLDHAGGKKMSDFSATHIGKPMATVYREYKTNDRGVTERSERVISVATIQSQLGSQFRITGAGSMDDAQQLALLLRAGSLTAPVTIVEERTIGASLGAENIEN,not soluble
9,GESSKSGYQTTGENNSSDYQGIIEDGEYKTSKSRGVGISQNSDNLLNLKSFEAGLTTISKDHFSTKSYIFQEGQYLNKATIQDWLGRKSSSNPEGLNPSDNGKKEANKRNPIYVQQIEEQDYMKQNNGKLELAGMTIGIGMNQKDYYQKEQYGATYSTTISKEKRIEEGKIAAKKVLARVRQKVGNNVPIVIAMFAQAPNDSLVGGYFYSYTVSKSGTDIGSWTETNIKSYVLPATEDNKLPNDNDSTSFDNFQKEVKNFFPNISNVTGQGQYKDKTLQGLHITITTQFYSETEITSFTQYVAQAAKSYLPSGIPVDIKINGSDGETQSFVSTTGGNGGYYTHVFGSY,soluble
10,GFNYSITGNIATFKNKITELPDNVRSVYGGNGMLDDIIGRPRNSIYGYVADGIFKTQEEVDNSPQQAGKGLGRIRYKDLDGDGRITQDYDRTWIGVSDPDFTYGLNLQASYKNVDLALFFQGVHGGDVWDSWIEYSDFWNIQDVNNTNHLKGVFNAWSPQNPDSNIPALSTRNTNDEKRTSTYFLKDGSYLKLRTIELGYTFPESMVKKAMISRLRAYVSANNVFTIKKWWDSNRFSGPDPEIRDFGYVIPFTATVGVNITF,not soluble
11,GFRWASNATFTLNRNKVKRLAGGSTNPVTGELIDMPNMPVGWLGKENVAPRVILTEGGTMTDIYVYNELTKDNNGNIKVDAQTGGLSMHTAETPTKVGNLNANYNLGWTNNFTYKGINLGVVLSARVGGLAYSATQGVLDYYGVSSITANARDNKGVPMNNGKVDTQKYYQTIGTGEGGYGRYYLYSATNVRLQELSLSYTLPKKWLNNVANVTFGLVGRNLWMIYCKAPFDPELSASTSSNYYMNVDYFMQPSMRNIGFNVKVQF,not soluble
12,GGSEDEDSPLDALDLVWAKCRGYPSYPALIIDPKMPREGMFHHGVPIPVPPLEVLKLGEQMTQEAREHLYLVLFFDNKRTWQWLPRTKLVPLGVNQDLDKEKMLEGRKSNIRKSVQIAYHRALQHRSKVQGE,soluble
13,GHFAPQQMKEAIEIYKTLFEPSDVLDEPYVIVCLNTIVAENDDEAQYLASSMAQVMVSITRGRMQPVQPPTHDLQNILTPREYAMAMERQKISLIGSENTVQQKIQDFMETYGEVNEIMAISYIYDKDMQLDSYRRFKN,not soluble
14,GHHHHHHAIAENLYFQSETSETDSTGNTQTCETRQTRSNSWTAWGIHAISTITDGAKQLYTKALGLDELEEKKLEDEEGVTHVEVDEKTKRDLWNQLSTLVGADVINMRLSLPVWLFEPTTALQRMCETLQFHQLLDMAATCEEPVERDALVAAFTVSAFAHTERVYKPFNPVLGETFEWTSRDGTTRVLCEQVSHHPPVSVSYTEGPGWVAQEVFSCNAYFLGNSVEIRNTGSRYVYLTSFDERYEWTLPVSAAQNLFVGGSFIDHYGELILRSSPRGSVTSLTFTKCGWFGRGRYAVNGDIVDADGYRVMELSGEWNRGLVGFRLDKSSGERVDAKSLWYAGEHKPAVKRDKYNFTNFTYELLEVPDNAESIIPPTDSRFRPDRRALEGNNLSLANLEKVRVENIQRERENQRQKTGTTYVPAWFYQDDNNEWHFGGKYWKETRNMSEDQKEQMKLW,not soluble
15,GHHHHHHAIAENLYFQSQQVKQKHKKSDEYRVFVGNLPFSWLEDAVRSVFHSYGTVVDVEVPRKREQPERNRGFAFVYFSSREEALAATTLSGSRLDGRIIKVEWADDGSEHRKVGHEELTQRPTHPLASSQVYEWGGQQVQKQNDSVVSKETPNFMPSGALYKEQRMTRYGKELKFVEPLDARKPEQPWRMYVFKNGKLLEGEEGVFYIHQKSNYLFGRDRDVVDIPIDHPSASKQHAVLQFRQVMPKNGNKLVIKPYIMDLESTNGTFLNNERIESLRYYELLEKDLLRFGHSSREFILLTGHK,soluble
16,GHHHHHHEAIAKRLDACQDQLLELYEENSIDIHKHIMHWKCIRLESVLLHKAKQMGLSHIGLQVVPPLTVSETKGHNAIEMQMHLESLAKTQYGVEPWTLQDTSYEMWLTPPKRCFKKQGNTVEVKFDGCEDNVMEYVVWTHIYLQDNDSWVKVTSSVDAKGIYYTCGQFKTYYVNFNKEAQKYGSTNHWEVCYGSTVICSPASVSSKKKK,soluble
17,GHHHHHHHHHHSSGHIEGRHMKRMIALDGAQGEGGGQILRSALSLSMITGQPFTITSIRAGRAKPGLLRQHLTAVKAATEICGATVEGAELGSQRLLFRPGTVRGGDYRFAIGSAGSCTLVLQTVLPALWFADGPSRVEVSGGTDNPSAPPADFIRRVLEPLLAKIGIHQQTTLLRHGFYPAGGGVVATEVSPVASFNTLQLGERGNIVQMRGEVLLAGVPRHVAEREIATLAGSFSLHEQNIHNLPRDQGPGNTVSLEVESENITERFFVVGEKRVSAEVVAAQLVKEVKRYLASTAAVGEYLADQLVLPMALAGAGEFTVAHPSCHLLTNIAVVERFLPVRFSLIETDGVTRVSIE,soluble
18,GHMIMANWQSIDELQDIASDLPRFIHALDELSRRLGLNITPLTADHISLRCHQNATAERWRRGFEQCGELLSENMINGRPICLFKLHEPVQVAHWQFSIVELPWPGEKRYPHEGWEHIEIVLPGDPETLNARALALLSDEGLSLPGISVKTSSPKGEHERLPNPTLAVTDGKTTIKFHPWSIEEIVASEQSA,soluble
19,GIDPFTMLHIEFITDLGAKVTVDVESADKLLDVQRQYGRLGWTSGEVPVGGYQFPLENEPDFDWSLIGARKWTNPEGEEMILHRGHAYRRRELEAVDSRKMKLPAAVKYSRGAKNTDPEHVREKADGEFEYVTLAIFRGGKRQERYAVPGSNRPQAGAPARSAATRAQGARPGAVAVQDEETPF,soluble
20,GIPKCPEDWGASSRTSLCFKLYAKGKHEKKTWFESRDFCRALGGDLASINNKEEQQTIWRLITASGSYHKLFWLGLTYGSPSEGFTWSDGSPVSYENWAYGEPNNYQNVEYCGELKGDPTMSWNDINCEHLNNWICQIQKGQTPKPD,soluble
21,GIQVRDCMIPRNEMIACELQTDIEVLKTTFIDTGLSKIIIYRQNIDDVVGYIHSSEMFRGQDWQKRINTTVFVPESMYANKLMRLLMQRKKSIAIVIDELGGTAGMVTLEDLVEEIFGDIEDEH,not soluble
22,GIVATRYRDFSPLLEALTQLLFYVTPIVWTTETLYSQGGAVSERAKLAMLNPLYHYMEVIRAPLIGAPIHP,not soluble
23,GKKQEPFEQVTIDIEEQHQGSVMEALGIRKGEVKDMIPDGKGRTRLEYVIPSRGLIGFRNEFMTMTSGTGLLYSSFSHYDDVKLGEIGQRKNGVLISNATGKALAYALFGLQERGKLMIEHGVDVYEGQI,not soluble
